The text below walks through data of the DeepSol protein solubility set.

The series can be described thus: soluble on expression in E. coli; label from the status in PepcDB or PDB records.
Consider “MDPLLTLLYIRHTLTSPWSSSEERDTAKAAMMEEMEKHNMAPYIRLVCEALGVPLDESKLAEMDAINAKKVAAFDARLKDAVDNLGDTEVRDVLQAKCDHYARIGDLEMCMKTNEECAAKTLATGPKLDLYFQRIRLGIAFSDNDIAAKGITDAHRLMKDGDWERRNRLRVYEGIYHVFIRDFQRGSTLLLDSITTFAAGELLTFQDFVFITVVASLPVLSRPELRKRIVYSPEVNRTGVDDVRELVNSIYDCQYNKVFPNLEVVCQHLRKVVYLSPHVSYFFREMRVLIFTQFLDSYSSVTLESMGAAFGIPVPALDSMLCTLISNERIACKVDRVDGSVETYRGDTTNFDYHRIVKSGDLLLNRIQKLSRLVDM”, for which the “soluble on expression in E. coli” value is “not soluble”.
For the sequence “SYLGSEFDNVELKDLANVLSFGEAKLGDNGQKFNFLFHTASSNVWVPSIKCTSESCESKNHYDSSKSKTYEKDDTPVKLTSKAGTISGIFSKDLVTIGKLSVPYKFIEMTEIVGFEPFYSESDVDGVFGLGWKDLSIGSIDPYIVELKTQNKIEQAVYSIYLPPENKNKGYLTIGGIEERFFDGPLNYEKLNHDLMWQVDLDVHFGNVSSKKANVILDSATSVITVPTEFFNQFVESASVFKVPFLSLYVTTCGNTKLPTLEYRSPNKVYTLEPKQYLEPLENIFSALCMLNIVPIDLEKNTFVLGDPFMRKYFTVYDYDNHTVGFALAKNL”, the “soluble on expression in E. coli” value is recorded as “soluble”.
In the case of “MADVTGIALGMIETRGLVPAIEAADAMTKAAEVRLVGRQFVGGGYVTVLVRGETGAVNAAVRAGADACERVGDGLVAAHIIARVHSEVENILPKAPQA”, the “soluble on expression in E. coli” value was “soluble”.
Turning to “MAHHHHHHMEISSISETDKNAITRLLSSDLSRTVARHAIIVLHYFRTISDEDLPIDVLLGGCVLYAVKQRQASNANYFLRECLERVKESDIVGFELLLVQVVRHNVLLIETCLRSVFHEVLLENPVAGLDRERTIKVCLHLISFLYRTSWCLFPESAARGAFLVASEKCEIKLGKLSSAFDGPMVKHIAKYLRDQFWN”, the “soluble on expression in E. coli” value is “not soluble”.
“QSRGEKRTAHNAIEKRYRSSINDKIIELKDLVVGTEAKLNKSAVLRKAIDYIRFLQHSNQKLKQENLSLRTAVHKSKSLKDL”: the “soluble on expression in E. coli” value is “soluble”.
Take “AIAFILSAQRLSGTQVFRRLAEGCTGYSVSSGCRQRRRCCPGAPQRPRRVRVNALQLQSGLADPLDPKSEAEVREHLRSNSPAERALGINYARYLDESTRYDILLEMMEDTDPQVRYAAVTQLATVGSHDRQRTLKAVRKILWNTEEDASVRAGALTCWAVSGSTRPSQTWKSSSTSRRTGWCGSASSLL”: the “soluble on expression in E. coli” value was “soluble”.
In the case of “SNAMTHIQLDFSKTLEFFGEHELKQQQEIVKSIHKTIHEGTGAGSDFLGWVDLPVDYDKEEFSRIVEASKRIKENSDVLVVIGIGGSYLGARAAIEMLTSSFRNSNEYPEIVFVGNHLSSTYTKELVDYLADKDFSVNVISKSGTTTEPAVAFRLFKQLVEERYGKEEAQKRIFATTDKEKGALKQLATNEGYETFIVPDDVGGRYSVLTAVGLLPIATAGINIEAMMIGAAKAREELSSDKLEENIAYQYATIRNILYAKGYTTEMLINYEPSMQYFNEWWKQLFGESEGKDFKGIYPSSANYTTDLHSLGQYVQEGRRFLFETVVKVNHPKYDITIEKDSDDLDGLNYLAGKTIDEVNTKAFEGTLLAHTDGGVPNMVVNIPQLDEETFGYVVYFFELACAMSGYQLGVNPFNQPGVEAYKQNMFALLGKPGFEDLKKELEERL”, the “soluble on expression in E. coli” value is listed as “soluble”.
Regarding “MVERLTIIRGVEKFELQTKTARWVLAKEEGYSPVQMLVSAIGACGGYVYQSVLENSHIPFEFEKIEVTYSREVERRAQPLKQVTILFYVTVPEAFQERATRCLKLVSPNCPVIQSLAERITVEETVVFKK”, the “soluble on expression in E. coli” value is “not soluble”.
As to “MDEFEMIKRNTSEIISEEELREVLKKDEKSAIIGFEPSGKIHLGHYLQIKKMIDLQNAGFDIIILLADLFAYLNQKGELDEIRKIGDYNKKVFEAMGLKAKYVYGSSFMLDKDYTLNVYRLALKTTLKRARRSMELIAREDENPKVAEVIYPIMQVNPLHYEGVDVAVGGMEQRKIHMLARELLPKKVVCIHNPVLTGLDGEGKMSSSKGNFIAVDDSPEEIRAKIKKAYCPAGVVEGNPIMEIAKYFLEYPLTIKRPEKFGGDLTVNSYEELESLFKNKELHPMDLKNAVAEELIKILEPIRKRLLEHHHHHH”, the “soluble on expression in E. coli” value was “soluble”.
With “GQDRFVYTCNECKHHVETRWHCTVCEDYDLCINCYNTKSHTHKMVKWGLGLD”, the “soluble on expression in E. coli” value is “soluble”.
Under “MNKLQSYFIASVLYVMTPHAFAQGTVTIYLPGEQQTLSVGPVENVVQLVTQPQLRDRLWWPGALLTDSAAKAKALKDYQHVMAQLASWEAEADDDVAATIKSVRQQLLNLNITGRLPVKLDPDFVRVDENSNPPLVGDYTLYTVQRPVTITLLGAVSGAGQLPWQAGRSVTDYLQDHPRLAGADKNNVMVITPEGETVVAPVALWNKRHVEPPPGSQLWLGFSAHVLPEKYADLNDQIVSVLTQRVPD” stands “not soluble”.
Regarding “MAHHHHHHMDLIQWPLPYQDELLNFYIFNDSKFVGGQNRWNLFKKKVMHHNIHVISNCYCQISLLRLSQLLNASVDDSESFLSELVSNKILNAKIDRLHGIIKFGQKKTPEVLLNNWSSQIHQILNLLEESSHLIQKERMLHEAKLKRMQLESKNMSL”, the “soluble on expression in E. coli” value is “not soluble”.
Take “MGSDKIHHHHHHMSFEKTSELIEKSRELQEVYQQLVEDVGLDLWRFCRYLTGSPWDGEDLYQETLVKAFGSLYQRWQPTNPKAYLFRIATNTWIDQCRKAKRIVGTVDEMEGPVEEFSNDLELEHAFTRLFTLFPPRQVAVFLLKDVFAFTAEEVASMVRSTSNGVYATSSRVRKKLKETASLEEELSSNGRPSPEQSEVIQQYLEAFNAGDLGKLFDLMSDEVHIDASLGFQEYSKEEMKKGSMQYGLPGFRAEPFVLWGKTVLVVLVDRDAGPLIHDIQFQEIENGKIVYHKSYYFCKEFLMGAAKELQLQVQLDKAAVHWRHSLDEGEL”: the “soluble on expression in E. coli” value is reported as “not soluble”.
“SLSERVRTYWIIIELKHKAREKPYDSKSLRTALQKEITTRYQLDPKFITSILYENNVITIDLVQNSSQKTQNDVDIADVAYYFEKDVKGESLFHSKKMDLTVNGEQLDLDPGQTLIYYVDEKAPEFSEG”: the “soluble on expression in E. coli” value is “soluble”.
Next, “LFDLGHPLLNRIADSFVKAAGVGALQAVSREAYFTVVDGAGFDSNNVGPPSEITGNKKHRFPNLRGESSKSLDALVKNTGKESLQWGLAAGLYSGITYGMTEVRGGAHDWRNSAVAGALTGAAMAMTTSERTSHEQVVQSALTGAAISTAANLLSSVF”: “not soluble”; “MGLFDRLRAGLAKTRERLLKAIPWGGDPEEVLEELEMALLAADVGVAATEELLKEVRASGRRDLKEVVKEKLVQMLEPDERRATLRKLGFRPQKLRPVEPQGHVVMVVGVNGVGKTTTIAKLGRLYQGLGKKVLFCAGDTFRAAGGAQLAEWGKRLGIPVIQGPEGADPAALAFDAAKARRARGLDLLFVDTAGRLHTKQGLMEELKKVKRAIAKADPGEPGEVWLVLDAVTGQNGLEQAKRFHEAVGLTGVIVTKLDGTAKGGVLVPIVRTLKVPIRFIGVGEGPDDLQPFDAEAFVEALLEA”: “soluble”.
Turning to “MTVRILAVCGNGQGSSMIMKMKVDQFLTQSNIDHTVNSCAVGEYKSELSGADIIIASTHIAGEITVTGNKYVVGVRNMLSPADFGPKLLEVIKAHFPQDVK”, the “soluble on expression in E. coli” value is on record as “not soluble”.
